Test results taken from PMC4558205 (Structure (London, England : 1993), 2015).

Key:
[1] = target: Mj0480, archaeal DUF106 protein from Methanocaldococcus jannaschii (Methanocaldococcus jannaschii, UniProt Q57904); test: SEC
[2] = target: the molecule itself; test: crystal structure

stoichiometry N [1] | Binder | binding result [2]
1 | synthetic antibody fragment (sAB) M1 (Fab, V domains shown) VH: EVQLVESGGGLVQPGGSLRLSCAASGFNFSSSSIHWVRQAPGKGLEWVASISPSYGYTYYADSVKGRFTISADTSKNTAYLQMNSLRAEDTAVYYCARGIWSYWYMVYPHDNYGMDYWGQGTLVTVSS VL: DIQMTQSPSSLSASVGDRVTITCRASQSVSSAVAWYQQKPGKAPKLLIYSASSLYSGVPSRFSGSRSGTDFTLTISSLQPEDFATYYCQQSSSRPVTFGQGTKVEIK | –
– | Mj0480, archaeal DUF106 protein from Methanocaldococcus jannaschii (natural protein, UniProt Q57904 1-198, looked up) MFGSIFDIYYKTLDAIFMPIIKVLHPALAILIIAIIVSLIINIATKLLVDQKRVAELKKEIQEFQVKFKKMSKNPEMMEKLQEEQQRIMQLNAELMKMSFRPMIYTWVPIILIFIYLRHVYGFGGVYQELNPGWNGVVVYLPIILSKILFIDFWHWLGSIFYKGGFKIVSNTALGWLGWYILCSFATSTVLRKILGIK | binds
